Reference: patent publication US7276337B2, “Compositions and methods for visual ribonuclease detection assays” (Integrated DNA Technologies, Inc., priority 2000, dated 2007)

B1: RNase A: commercial enzyme reagent from Ambion, tested for RNase activity (protein, UniProt P61823 27-150, looked up)
Ribonuclease pancreatic: KETAAAKFERQHMDSSTSAASSSNYCNQMMKSRNLTKDRCKPVNTFVHESLADVQAVCSQKNVACKNGQTNCYQSYSTMSITDCRETGSSKYPNCAYKTTQANKHIIVACEGNPYVPVHFDASV
B2: RNase 1: commercial enzyme reagent from Ambion, tested for RNase activity (protein, UniProt P21338 24-268, looked up)
Ribonuclease I: LALQAKQYGDFDRYVLALSWQTGFCQSQHDRNRNERDECRLQTETTNKADFLTVHGLWPGLPKSVAARGVDERRWMRFGCATRPIPNLPEARASRMCSSPETGLSLETAAKLSEVMPGAGGRSCLERYEYAKHGACFGFDPDAYFGTMVRLNQEIKESEAGKFLADNYGKTVSRRDFDAAFAKSWGKENVKAVKLTCQGNPAYLTEIQISIKADAINAPLSANSFLPQPHPGNCGKTFVIDKAGY
B3: RNase T1: commercial enzyme reagent from Ambion, tested for RNase activity (protein, UniProt P00651 27-130, looked up)
Guanyl-specific ribonuclease …: ACDYTCGSNCYSSSDVSTAQAAGYQLHEDGETVGSNSYPHKYNNYEGFDFSVSSPYYEWPILSSGDVYSGGSPGADRVVFNENNQLAGVITHTGASGNNFVECT
B4: Proteinase K: commercial enzyme reagent from Ambion, sold as RNase-free (protein, UniProt P06873 106-384, looked up)
Proteinase K: AAQTNAPWGLARISSTSPGTSTYYYDESAGQGSCVYVIDTGIEASHPEFEGRAQMVKTYYYSSRDGNGHGTHCAGTVGSRTYGVAKKTQLFGVKVLDDNGSGQYSTIIAGMDFVASDKNNRNCPKGVVASLSLGGGYSSSVNSAAARLQSSGVMVAVAAGNNNADARNYSPASEPSVCTVGASDRYDRRSSFSNYGSVLDIFGPGTSILSTWIGGSTRSISGTSMATPHVAGLAAYLMTLGKTTAASACRYIADTANKGDLSNIPFGTVNLLAYNNYQA
B5: Bam HI: commercial enzyme from New England Biolabs, sold as RNase-free (protein, UniProt P23940 1-213, looked up)
Type II restriction enzyme …: MEVEKEFITDEAKELLSKDKLIQQAYNEVKTSICSPIWPATSKTFTINNTEKNCNGVVPIKELCYTLLEDTYNWYREKPLDILKLEKKKGGPIDVYKEFIENSELKRVGMEFETGNISSAHRSMNKLLLGLKHGEIDLAIILMPIKQLAYYLTDRVTNFEELEPYFELTEGQPFIFIGFNAEAYNSNVPLIPKGSDGMSKRSIKKWKDKVENK

System: Substrate oligonucleotide SEQ ID NO:30
Assay: RNase testing of commercially obtained reagents, visual detection
Type: biochemical
Design: key: +++ = maximum intensity; ++ = moderate intensity; + = faint but above background; − = negative (identical to background)
Conditions: reagent diluted 1:10 with Assay Buffer, 50 pmoles Substrate SEQ ID NO:30, 60 minutes at 37° C., UV
Experimental: Enzymes were obtained from New England Biolabs (NEB) or Ambion as indicated. Test sample (10 ul) was mixed with 1× buffer (90 ul) for a final volume of 100 ul with 50 pmoles of Substrate SEQ ID NO:30 in 0.5 ml RNase-free microtubes. Assay Mixes were incubated 60 minutes at 37° C. and visually examined under UV excitation for fluorescence emission. After scoring for results, 1 ul (1 ug) of RNase A was added to each tube. The Assay was incubated an additional 5 minutes at 37° C. and re-scored. The addition of RNase A represents a control for the absence of an Assay inhibitor and validates negative results. The “plus RNase A” control was omitted whenever the primary assay was already positive.
Table 9: RNase testing of commercially available reagents. A series of commercially available reagents were diluted 1:10 with Assay Buffer to a final volume of 100 ul. An RNase detection assay was performed using the method of the invention with Substrate oligonucleotide SEQ ID NO:30. Reactions were examined for fluorescence emission by visual inspection using an ultraviolet (UV) light source for excitation. Results were scored as +++, ++, +, or − based on relative signal intensity. As a control, RNase A (1 ug) was added to negative reactions and the Assay was re-scored. ND=not done.

Molecule | Assay Results (RNase activity in reagent, relative signal intensity)
B1 | +++
B2 | +++
B3 | +++
B4 | −
B5 | −
